Our source for the Kd and IC50 values is the Immune Epitope Database (IEDB).

Where only a bound is given, the exact number is not on record here.

One test deals with HLA-B*44:02. The test is described as follows: IEDB peptide-MHC binding, purified MHC/competitive/radioactivity; filed as Kd, often an IC50 or EC50 that approximates it; ≥ and ≤ were set here for values at or beyond the usual limits of such assays.
The target of a further test is HLA-B*40:01. Described as above.
In another test the target is HLA-B*40:02. The description is as above.
Another test concerns the target HLA-B*18:01. The test is described as above.
For a further test, the target named is HLA-B*44:03. Described as above.
The next test deals with HLA-B*45:01. The description is as above.
The target of another test is HLA-A*02:17. The test is described as above.
A further test has as its target HLA-B*08:01. The description is as above.
The target in the next test is HLA-A*32:01. The test is described as above. As to conditions: source organism: Vaccinia virus WR.
For test [1], the target named is HLA-B*15:01. Described as above.
The target of the next test is HLA-A*30:01. The description is as above. As to conditions: source organism: Vaccinia virus WR.
Another test has as its target HLA-B*15:03. The test is described as above. Particulars: source organism: Vaccinia virus WR.
The target of test [2] is HLA-A*11:01. The test is described as follows: IEDB peptide-MHC binding, purified MHC/competitive/fluorescence; ≥ and ≤ were set here for values at or beyond the usual limits of such assays.
In another test the target is HLA-A*03:01. Described as above.
Test [3] concerns the target HLA-A*11:01. Put plainly: IEDB peptide-MHC binding, purified MHC/competitive/fluorescence; filed as Kd, often an IC50 or EC50 that approximates it; ≥ and ≤ were set here for values at or beyond the usual limits of such assays. As to conditions: source organism: Homo sapiens.
Test [4] deals with HLA-A*02:01. Put plainly: IEDB peptide-MHC binding, purified MHC/competitive/fluorescence; ≥ and ≤ were set here for values at or beyond the usual limits of such assays. As to conditions: source organism: Zaire ebolavirus.
In test [5] the target is HLA-A*24:02. The test is described as above. Particulars: source organism: Zaire ebolavirus.
In test [6] the target is HLA-B*15:01. The test is described as above. Particulars: source organism: Zaire ebolavirus.
In test [7] the target is HLA-A*24:02. Put plainly: IEDB peptide-MHC binding, purified MHC/competitive/fluorescence; filed as Kd, often an IC50 or EC50 that approximates it; ≥ and ≤ were set here for values at or beyond the usual limits of such assays.
A further test has as its target HLA-A*31:01. Described as above. As to conditions: source organism: Salmonella enterica subsp. enterica serovar Typhimurium str. LT2.
Test [8] has as its target HLA-A*02:01. The test is described as follows: IEDB peptide-MHC binding, purified MHC/competitive/radioactivity; filed as Kd, often an IC50 or EC50 that approximates it; ≥ and ≤ were set here for values at or beyond the usual limits of such assays.
A further test deals with HLA-A*02:06. The description is as above. Particulars: source organism: Dengue virus 2 Jamaica/1409/1983.
The next test addresses HLA-A*02:03. The description is as above.
The mark [9] stands for this setting: source organism: Lassa virus Josiah.
The mark [10] stands for this setting: source organism: Vaccinia virus WR.
[11] abbreviates: source organism: Vaccinia virus.
The mark [12] stands for this setting: source organism: SARS coronavirus Tor2.
Where [13] appears, read: source organism: Zaire ebolavirus.
[14] abbreviates: source organism: Dengue virus 3 China/80-2/1980.
The mark [15] stands for this setting: source organism: Sudan ebolavirus.
[16] abbreviates: source organism: Dengue virus 2 Jamaica/1409/1983.
Setting [17] is: source organism: Dengue virus 1 Singapore/S275/1990.

Take SEGKDTPGGY: the Kd with HLA-B*44:02 (setting [9]) was 1450 nM; with HLA-B*40:01 (setting [9]), no less than 25400 nM; with HLA-B*40:02 (setting [9]), no less than 70800 nM; in the test with HLA-B*18:01 (setting [9]), no less than 59600 nM; in the test with HLA-B*44:03 (setting [9]) it was 1750 nM; with HLA-B*45:01 (setting [9]) it was no less than 70000 nM.

With KLLTKPWDV, in the test with HLA-A*02:17 (source organism: Dengue virus 4 Philippines/H241/1956), the Kd came to 379 nM.

As for RNKLSYRNK, the Kd in the test with HLA-B*08:01 (setting [10]) is no less than 61500 nM; in the test with HLA-A*32:01 it was no less than 44000 nM; in the test with HLA-B*15:01 [1] (setting [10]), no less than 29500 nM; in the test with HLA-A*30:01 it was 63.9 nM; with HLA-B*15:03 it was 16400 nM. For the same sequence, the values for the 50% inhibitory concentration (IC50) in the test with HLA-A*11:01 [2] (setting [11]) and in the test with HLA-A*03:01 (setting [11]) were no less than 90400 nM and 45100 nM, respectively.

YLDDRNTFR: the Kd with HLA-A*11:01 [3] was no less than 20000 nM.

Consider HEGHQTAAF, for which the Kd is 1120 nM in the test with HLA-B*44:02 (setting [12]); 2980 nM with HLA-B*40:01 (setting [12]); 2810 nM with HLA-B*40:02 (setting [12]); 4270 nM with HLA-B*18:01 (setting [12]); 4750 nM in the test with HLA-B*44:03 (setting [12]); no less than 26200 nM with HLA-B*45:01 (setting [12]).

With KLSSTNQLR, the IC50 with HLA-A*11:01 [2] (setting [13]) is 2460 nM; with HLA-A*02:01 [4], no less than 196000 nM; with HLA-A*03:01 (setting [13]) it was 6870 nM.

In the case of ATTTSPQNH, the concentration for half-maximal inhibition (IC50) was found to be 1910 nM in the test with HLA-A*11:01 [2] (setting [13]) and 37700 nM with HLA-A*03:01 (setting [13]).

On to ILMNFHQKK, for which the IC50 was determined as 9840 nM with HLA-A*24:02 [5]; 69400 nM with HLA-B*15:01 [6]; 163 nM in the test with HLA-A*11:01 [2] (setting [13]); 2470 nM with HLA-A*02:01 [4]; 808 nM in the test with HLA-A*03:01 (setting [13]).

YYLLFYPTI: in the test with HLA-A*24:02 [7] (source organism: Bacillus thuringiensis str. Al Hakam), the Kd was no more than 0.1 nM.

Consider MVGIVHFNK, for which the Kd in the test with HLA-A*24:02 [7] (source organism: Salmonella enterica subsp. enterica serovar Typhimurium str. LT2) turned out to be 42.9 nM; with HLA-A*31:01 it was 90 nM.

With YILWENNIKL, the Kd amounted to 10.1 nM with HLA-A*02:17 (setting [14]) and 5.85 nM with HLA-A*02:01 [8] (setting [14]).

In the case of LYNKMEFEPF, the Kd in the test with HLA-A*24:02 [7] (source organism: Influenza A virus H3N2) came out at 3.3 nM.

For AQHSTTLFK, the IC50 turned out to be 994 nM in the test with HLA-A*11:01 [2] (setting [15]) and 30000 nM with HLA-A*03:01 (setting [15]).

Regarding LMMATIGIAL, the Kd in the test with HLA-A*02:06 was 13.6 nM; with HLA-B*08:01 (setting [16]) it was 398 nM; in the test with HLA-A*02:17 (setting [16]), 171 nM; in the test with HLA-B*15:01 [1] (setting [16]) it was 6.5 nM; with HLA-A*02:03 (setting [16]), 8.92 nM; with HLA-A*02:01 [8] (setting [16]) it was 11.2 nM.

As to TLAVFLLLI, the Kd with HLA-A*02:17 (setting [17]) turned out to be 1840 nM; with HLA-A*02:01 [8] (setting [17]) it was 2590 nM.

On to FLAHAIGTSI, for which the equilibrium dissociation constant (Kd) with HLA-A*02:17 (setting [17]) worked out at 1.85 nM; with HLA-A*02:03 (source organism: Dengue virus 1 Brazil/97-11/1997) it was 46.7 nM; with HLA-A*02:01 [8] (setting [17]), 8.19 nM.
